This note sets out measurements from paper doi:10.1101/2025.02.07.637169, “Structural basis of flagellar rod assembly on the FliPQR protein-export channel” (bioRxiv, 2025).

B2: FliP (natural protein)
chain: QLPGLISQPLAGGGQSWSLSVQTLVFITSLTFLPAILLMMTSFTRIIIVFGLLRNALGTPSAPPNQVLLGLALFLTFFIMSPVIDKIYVDAYQPFSEQKISMQEALDKGAQPLRAFMLRQTREADLALFARLANSGPLQGPEAVPMRILLPAYVTSELKTAFQIGFTIFIPFLIIDLVIASVLMALGMMMVPPATIALPFKLMLFVLVDGWQLLMGSLAQSFYS
notes: FliP of Salmonella enterica serovar Typhimurium, mature protein after cleavage of the signal peptide (residues 1-21; cleavage between Ala-21 and Gln-22); residue numbers count on the precursor; Five FliP subunits stand in the FliP5-FliQ4-FliR1 complex; also called mature FliP; FliP^A (Mol-A); source: Salmonella SJW1368 carrying pMKM10001 (pTrcCES3/ FliP + FliQ + FliR-His); purified as FliPQR-His …

Common to all, as to assay: cryo-EM structure; FliPQR-His complex purified from Salmonella membranes and reconstituted in a peptidisc, detergent-free (20 mM Tris-HCl pH 8.0, 150 mM NaCl), fluorinated Fos-Choline 0, 1.0 or 2.0 mM added before grid preparation; single-particle analysis, C1 symmetry, 3.0 Å; closed form
The target in series [1] is B2. To be noted: both partners purified.
Series [2] concerns the target T1, FliR-His (Salmonella enterica serovar Typhimurium, UniProt P54702 1-264).
T1 construct: FliR of Salmonella enterica serovar Typhimurium; One FliR subunit stands in the FliP5-FliQ4-FliR1 complex; source: Salmonella SJW1368 carrying pMKM10001 (pTrcCES3/ FliP + FliQ + FliR-His); purified as FliPQR-His complex (LMNG, Ni-NTA, SEC), reconstituted in peptidisc; not shown: His tag (10 residues), C-terminal, kept
T1 sequence: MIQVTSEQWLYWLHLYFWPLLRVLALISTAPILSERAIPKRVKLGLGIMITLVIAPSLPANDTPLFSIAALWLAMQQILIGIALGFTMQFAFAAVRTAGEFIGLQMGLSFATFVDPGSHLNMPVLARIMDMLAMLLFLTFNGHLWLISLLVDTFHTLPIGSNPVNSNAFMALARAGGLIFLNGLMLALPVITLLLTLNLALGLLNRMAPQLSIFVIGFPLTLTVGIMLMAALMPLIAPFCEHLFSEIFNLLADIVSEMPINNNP
To be noted: both partners purified.

Series [3] concerns the molecule itself.

B1: FliQ (natural protein)
chain: MTPESVMMMGTEAMKVALALAAPLLLVALITGLIISILQAATQINEMTLSFIPKIVAVFIAIIVAGPWMLNLLLDYVRTLFSNLPYIIG
notes: FliQ of Salmonella enterica serovar Typhimurium; Four FliQ subunits stand in the FliP5-FliQ4-FliR1 complex; source: Salmonella SJW1368 carrying pMKM10001 (pTrcCES3/ FliP + FliQ + FliR-His); purified as FliPQR-His complex (LMNG, Ni-NTA, SEC), reconstituted in peptidisc
Take B1: the binding result in series [1] and in series [2] was “binds” throughout.

For orientation: stoichiometry N means the number of molecules, sites or subunits per partner or assembly. Regarding B2, in series [2], the binding result was “binds”. The “stoichiometry N” value in series [3] is 5 subunits.
